Where a chain is given by its changes, count along the chain named.
B1: sgRNA + on-target 55-bp DNA (mixed)
RNA: GACGCAUAAAGAUGAGACGCGUUUUAGAGCUAUGCUGUUUUGGAAACAAAACAGCAUAGCAAGUUAAAAUAAGGCUAGUCCGUUAUCAACUUGAAAAAGUGGCACCGAGUCGGUGCUUUUUUUGGAUC
DNA 1: AGCTGACGTTTGTACTCCAGCGTCTCATCTTTATGCGTCAGCAGAGATTTCTGCT
DNA 2: AGCAGAAATCTCTGCTGACGCATAAAGATGAGACGCTGGAGTACAAACGTCAGCT
B2: sgRNA + off-target 55-bp DNA (3-bp PAM-distal mismatch) (mixed)
RNA: B1 RNA
DNA 1: B1 DNA 1 with G37C, T38A, C39G
DNA 2: B1 DNA 2 with G17C, A18T, C19G

Tests used:
Settings in all cases: protein: recombinant; tags: His6-MBP removed by TEV; label: 32P or 6-FAM for cleavage; tCo (position not in material) for unwinding; guide RNA (S25+S26 joined) / target strand / non-target strand; DNA duplex blunt
SpCas9 [1] = target: T1, SpCas9 (Streptococcus pyogenes, UniProt Q99ZW2 1-1368); assay: stopped-flow and cleavage kinetics, global fit; Kd,net including R-loop formation; bracketed value, footnote 3 not in material, may be fixed or from earlier work; Reaction buffer, salt, pH and temperature not in the material; Mg2+ added to start cleavage, omitted for pre-equilibration
SpCas9 [2] = target: T1, SpCas9; assay: stopped-flow and cleavage kinetics, global fit; 1/K1, initial binding step; bracketed value, footnote 3 not in material, may be fixed or from earlier work; Reaction buffer, salt, pH and temperature not in the material; Mg2+ added to start cleavage, omitted for pre-equilibration
SpCas9 [3] = target: T1, SpCas9; assay: stopped-flow and cleavage kinetics, global fit; Kd,net including R-loop formation; Reaction buffer, salt, pH and temperature not in the material; Mg2+ added to start cleavage, omitted for pre-equilibration
SpCas9 [4] = target: T1, SpCas9; assay: stopped-flow and cleavage kinetics, global fit; 1/K1, initial binding step; Reaction buffer, salt, pH and temperature not in the material; Mg2+ added to start cleavage, omitted for pre-equilibration

T1 sequence (Q99ZW2 whole entry): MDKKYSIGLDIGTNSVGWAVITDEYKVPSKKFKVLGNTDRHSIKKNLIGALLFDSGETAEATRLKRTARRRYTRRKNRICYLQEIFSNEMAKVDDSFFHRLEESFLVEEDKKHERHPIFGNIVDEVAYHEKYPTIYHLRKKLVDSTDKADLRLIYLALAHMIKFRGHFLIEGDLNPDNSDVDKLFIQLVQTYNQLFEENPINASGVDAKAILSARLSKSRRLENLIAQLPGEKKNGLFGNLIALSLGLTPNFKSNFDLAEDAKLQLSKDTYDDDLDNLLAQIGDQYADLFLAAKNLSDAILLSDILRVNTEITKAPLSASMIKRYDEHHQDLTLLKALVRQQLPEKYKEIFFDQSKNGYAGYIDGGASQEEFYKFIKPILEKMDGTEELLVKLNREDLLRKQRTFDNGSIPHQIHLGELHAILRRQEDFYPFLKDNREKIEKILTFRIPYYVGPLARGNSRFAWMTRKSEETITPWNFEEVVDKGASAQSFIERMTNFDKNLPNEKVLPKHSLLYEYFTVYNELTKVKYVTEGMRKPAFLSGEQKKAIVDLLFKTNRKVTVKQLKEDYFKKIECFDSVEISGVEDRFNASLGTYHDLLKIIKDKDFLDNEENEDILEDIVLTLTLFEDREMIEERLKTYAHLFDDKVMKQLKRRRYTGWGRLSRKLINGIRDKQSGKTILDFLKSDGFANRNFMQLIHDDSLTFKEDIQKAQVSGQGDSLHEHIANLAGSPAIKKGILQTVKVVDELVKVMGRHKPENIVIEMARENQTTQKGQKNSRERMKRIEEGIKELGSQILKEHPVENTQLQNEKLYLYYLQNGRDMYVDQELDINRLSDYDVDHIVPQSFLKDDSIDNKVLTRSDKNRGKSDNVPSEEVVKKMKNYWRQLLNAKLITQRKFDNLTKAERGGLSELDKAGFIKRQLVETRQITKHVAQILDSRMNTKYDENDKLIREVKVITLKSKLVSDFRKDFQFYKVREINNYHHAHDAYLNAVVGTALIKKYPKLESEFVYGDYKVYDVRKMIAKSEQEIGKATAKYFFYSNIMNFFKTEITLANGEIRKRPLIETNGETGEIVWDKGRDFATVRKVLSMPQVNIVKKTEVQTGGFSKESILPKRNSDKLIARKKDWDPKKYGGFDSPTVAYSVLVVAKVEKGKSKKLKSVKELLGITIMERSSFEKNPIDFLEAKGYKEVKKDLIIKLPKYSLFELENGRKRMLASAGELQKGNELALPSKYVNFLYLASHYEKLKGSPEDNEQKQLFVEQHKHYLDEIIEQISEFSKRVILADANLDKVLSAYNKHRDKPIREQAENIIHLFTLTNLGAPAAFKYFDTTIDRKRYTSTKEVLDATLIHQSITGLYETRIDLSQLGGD

Binder	Kd (SpCas9 [1])	Kd (SpCas9 [2])	Kd (SpCas9 [3])	Kd (SpCas9 [4])
B1	1 nM	3 nM		
B2			8.1 nM	24 nM
